Positions count from the first letter of the chain named. Numbers in names are those of the source.
How the values were obtained:
rice (Jinjing 818) [1] = assay: Transgenic rice seedlings, compound B added to medium at rooting phase; assay type: in vivo; details: at least 1 μM compound B in medium (0.5 and 1 μM for SEQ ID NO: 42), 17-26 days
Description: Plant transformation vectors were constructed, each comprising a recombinant DNA molecule encoding an engineered protein (SEQ ID NO: 42/38/82/86/102/106/126/138/142) with the protein-coding sequence optimized for monocot expression, and rice (Jinjing 818) calli were transformed with these vectors using Agrobacterium tumifaciens and standard methods known in the art. Different concentrations of hormone herbicide compound B were added at the rooting phase of the rice seedlings to test hormone resistance, wherein, the test results of control Jinjing 818 plants and transgenic Jinjing 818 plants comprising the protein-coding gene of SEQ ID NO: 42 after adding 0.5 μM and 1 μM compound B to medium for 19 days are shown in FIG. 1. The test results of control Jinjing 818 plants and transgenic Jinjing 818 plants comprising the protein-coding genes of SEQ ID NO: 38/82/86/102/106/126/138/142 after adding 1 μM compound B to medium are shown in FIG. 5-11.

rice (Jinjing 818) [2] = assay: Transgenic rice T0 plantlets in greenhouse sprayed with compound B; assay type: in vivo; details: medicated medium test and greenhouse spraying test for T0 generation, compound B
Description: (§1) Then, the obtained regenerated TO generation transgenic plantlets grew in the greenhouse, and were sprayed with compound B at the growth stage when approximately two leaves unfolded and the third one just appearing. Resistance levels of plants were recorded and evaluated after spraying treatment, wherein, the test results of control Jinjing 818 plants and transgenic Jinjing 818 plants comprising the protein-coding gene of SEQ ID NO: 42 after applying 20 g, 40 g, 60 g, 80 g, 100 g, 120 g/mu (1 mu=1/15 ha) compound B for corresponding days (DAT) are shown in FIG. 2.

[3] = Enzymatic kinetic measurements of purified proteins with compound A as substrate; assay type: biochemical; details: purified protein, compound A 0-1000 μM as substrate
Description: Based on the results of HPLC, representative engineered proteins were selected for protein purification. Further protein characterization, such as Km, Vmax and Kcat, was performed on the 8 engineered proteins from Table 2. Conventional Ni column affinity chromatography was used for protein purification and protein extract purity was assessed by SDS-PAGE analysis. After determining protein concentration by BCA method, enzyme activity was determined.

[4] = Conversion rate of substrate compound A by E. coli expressing each engineered protein (HPLC, oxygenase activity); assay type: biochemical
From the text: The high-throughput bacterial protein expression was achieved by cloning the synthesized gene that encodes each engineered protein into a bacterial expression vector with a C-terminal histidine tag (His-tag). The vectors were transformed into Escherichia coli (E. coli), and expression of the engineered proteins was induced. E. coli cultures were selected and cultured in centrifuge tubes overnight, meanwhile, added with substrates and IPTG, and the cultures were centrifuged to pellet the bacteria the next day. Alternatively, E. coli cultures were selected and cultured in centrifuge tubes overnight, and centrifuged to pellet the bacteria after adding substrates for reaction the next day. The supernatant of reaction solution was pipetted into a 96-well plate and the absorbance at 510 nm from 4-aminoantipyrine and potassium ferricyanide was measured by an endpoint colorimetric method to detect phenol products. Substrate reduction and product yield were measured by high performance liquid chromatography (HPLC) to detect the oxygenase activity (i.e., enzymatic activity) of the engineered proteins, and the activities of the proteins were compared by calculating conversion rates.
Conversion rate=(Peak area of initial substrate−Peak area of substrate after reaction)/Peak area of initial substrate*100%

Arabidopsis thaliana = assay: T2 transgenic Arabidopsis thaliana seeds screened on compound A medium; assay type: in vivo; details: 0.15 μM compound A in medium, 11-24 days
From the text: Engineered proteins were selected for Arabidopsis thaliana transformation and plant analysis. DNA constructs were transformed into Arabidopsis thaliana using Agrobacterium tumifaciens and standard methods known in the art.
The transformed TO transgenic plantlets grew in the greenhouse. T1 generation Arabidopsis thaliana plant seeds produced by transformation of all constructs were collected after approximately 60 days of growth. Transgenic T1 generation Arabidopsis thaliana plants were screened by adding HYG to medium for T1 generation. T1 plants were selfed to produce seeds of T2 generation Arabidopsis thaliana plants. Wherein, compound A was added to medium to screen and test T2 generation Arabidopsis thaliana plant seeds, that were produced by all constructs, comprising unique events screened by T1 generation.

soybean = assay: Transgenic soybeans sprayed with compound C; assay type: in vivo; details: 10 g compound C sprayed
Description: Engineered proteins were selected for soybean transformation and plant analysis. DNA constructs were transformed into soybeans using Agrobacterium tumifaciens and standard methods known in the art.
The transformed TO transgenic plantlets grew in the greenhouse. TO generation transgenic plantlets were tested by spraying 10 g compound C. […] T1 generation soybean plant seeds produced by transformation of all constructs were collected, and T1 generation seedlings were tested by spraying 10 g compound C.

maize = assay: T0 transgenic maize plantlets sprayed with 30% glyphosate compound C (25+5) ME; assay type: in vivo
Description: Engineered proteins were selected for maize transformation and plant analysis. DNA constructs were transformed into maizes using Agrobacterium tumifaciens and standard methods known in the art.
The transformed TO transgenic plantlets grew in the greenhouse. TO generation transgenic plantlets were tested by spraying with 150 g, 250 g, 400 g, 600 g, 800 g of 30% glyphosate compound C (25+5) ME.

rice (Jinjing 818) [5] = assay: Transgenic rice T0 plantlets in greenhouse sprayed with quizalofop-P-ethyl; assay type: in vivo; details: T0 plantlets foliage-sprayed with 5 g, 10 g/mu quizalofop-P-ethyl, 20 DAT
Description: as §1, with “The” for “Then, the”, “quizalofop-P-ethyl” for “B”, “46” for “42”, “applying 0 g, 5 g, 10 g/mu compound quizalofop-P-ethyl for” for “applying”, “DAT” for “g, 40 g, 60 g, 80 g, 100 g, 120 g/mu (1 mu=1/15 ha) compound B for corresponding days (DAT)”, “12.” for “2.”

[6] = Reaction condition 1: bacteria cultured overnight, substrate compound A and IPTG added to react overnight
[7] = Reaction condition 2: bacteria cultured overnight, 8 times dose of substrate compound A of condition 1 added, react 3 hours the next day

B1: SEQ ID NO: 38: RdpA mutant L82H + V187L + F182W + R104G (protein)
chain: MHAALSPLSQRFERIAVQPLTGVLGAEITGVDLREPLDDSTWNEILDAFHTYQVIYFPGQAITNEQHIAFSRRFGPVDPVPHLKSIEGYPEVQMIRREANESGGVIGDDWHTDSTFLDAPPAAVVMRAIDVPEHGGDTGFLSMYTAWETLSPTMQATIEGLNVVHSATRVFGSLYQAQNRRWSNTSLKVMDVDAGDRETVHPLVVTHPGSGRKGLYVNQVYCQRIEGMTDAESKPLLQFLYEHATRFDFTCRVRWKKDQVLVWDNLCTMHRAVPDYAGKFRYLTRTTVGGVRPAR
drug resistance (tolerance to compound B) compared with wild-type plants (rice (Jinjing 818) [1]): exhibited better drug resistance | tolerance compared with the wild types (summary) (rice (Jinjing 818) [2]): exhibited apparent tolerance | Kcat [3]: 0.43 S^−1 | Km [3]: 54.6 µM | Vmax [3]: 49.9 | Conversion rate [4, 6]: 96.9%

B2: SEQ ID NO: 102: RdpA mutant L82H + V187L + F182W + G103L + T112A (protein)
chain: B1 chain with G103L, G104R, T112A
drug resistance compared with wild-type Arabidopsis thaliana (longer roots and larger leaves) (Arabidopsis thaliana): exhibited better drug resistance | drug resistance (tolerance to compound B) compared with wild-type plants (rice (Jinjing 818) [1]): exhibited better drug resistance | tolerance compared with the wild types (summary) (rice (Jinjing 818) [2]): exhibited apparent tolerance | Conversion rate [4, 7]: 93.2%

B3: SEQ ID NO: 46: RdpA mutant L82H + V187L + F182W + R104G + T112S (protein)
chain: B1 chain with T112S
drug resistance compared with wild-type Arabidopsis thaliana (longer roots and larger leaves) (Arabidopsis thaliana): exhibited better drug resistance | resistance compared with the wild-type soybean (soybean; T0 generation plantlets): exhibited apparent resistance | resistance compared with the wild-type soybean (soybean; T1 generation seedlings): exhibited apparent resistance | drug resistance compared with the wild-type maize (maize; 600 g 30% glyphosate compound C (25+5) ME): better drug resistance | phytotoxicity reaction of transgenic plantlets (maize; 600 g of 30% glyphosate compound C (25+5) ME): the stem base was slightly enlarged, the whole plant growth was obviously inhibited, and the plant was in normal condition | phytotoxicity reaction of transgenic plantlets (maize; 800 g of 30% glyphosate compound C (25+5) ME): the stem base was significantly enlarged, inhibition on the whole plant growth was further intensified, and the leaf color became lighter and lusterless | phytotoxicity reaction of transgenic plantlets (maize; concentration below 600 g of 30% glyphosate compound C (25+5) ME): no apparent phytotoxicity reaction | drug resistance (tolerance to quizalofop-P-ethyl) compared with wild-type plants (rice (Jinjing 818) [5]): exhibited better drug resistance | Kcat [3]: 0.15 S^−1 | Km [3]: 17.5 µM | Vmax [3]: 35.2 | Conversion rate [4, 6]: 97%

B4: SEQ ID NO: 86: RdpA mutant L82H + V187L + F182W + G103L + R180S (protein)
chain: B1 chain with G103L, G104R, R180S
drug resistance compared with wild-type Arabidopsis thaliana (longer roots and larger leaves) (Arabidopsis thaliana): exhibited better drug resistance | drug resistance (tolerance to compound B) compared with wild-type plants (rice (Jinjing 818) [1]): exhibited better drug resistance | tolerance compared with the wild types (summary) (rice (Jinjing 818) [2]): exhibited apparent tolerance | Conversion rate [4, 7]: 76.8%

B5: SEQ ID NO: 82: RdpA mutant L82H + V187L + F182W + G103L + R180E (protein)
chain: B1 chain with G103L, G104R, R180E
drug resistance compared with wild-type Arabidopsis thaliana (longer roots and larger leaves) (Arabidopsis thaliana): exhibited better drug resistance | drug resistance (tolerance to compound B) compared with wild-type plants (rice (Jinjing 818) [1]): exhibited better drug resistance | tolerance compared with the wild types (summary) (rice (Jinjing 818) [2]): exhibited apparent tolerance | Conversion rate [4, 7]: 71.6%

B6: SEQ ID NO: 142: RdpA mutant L82H + V187L + F182W + R104G + T112S + R180Q (protein)
chain: B1 chain with T112S, R180Q
drug resistance compared with wild-type Arabidopsis thaliana (longer roots and larger leaves) (Arabidopsis thaliana): exhibited better drug resistance | drug resistance (tolerance to compound B) compared with wild-type plants (rice (Jinjing 818) [1]): exhibited better drug resistance | tolerance compared with the wild types (summary) (rice (Jinjing 818) [2]): exhibited apparent tolerance | Conversion rate [4, 7]: 67%

B7: SEQ ID NO: 126: RdpA mutant L82H + V187L + F182W + R104G + T112S + R180K (protein)
chain: B1 chain with T112S, R180K
drug resistance compared with wild-type Arabidopsis thaliana (longer roots and larger leaves) (Arabidopsis thaliana): exhibited better drug resistance | drug resistance (tolerance to compound B) compared with wild-type plants (rice (Jinjing 818) [1]): exhibited better drug resistance | tolerance compared with the wild types (summary) (rice (Jinjing 818) [2]): exhibited apparent tolerance | Conversion rate [4, 7]: 92.6%

B8: SEQ ID NO: 138: RdpA mutant L82H + V187L + F182W + G103L + R180T (protein)
chain: B1 chain with G103L, G104R, R180T
drug resistance compared with wild-type Arabidopsis thaliana (longer roots and larger leaves) (Arabidopsis thaliana): exhibited better drug resistance | drug resistance (tolerance to compound B) compared with wild-type plants (rice (Jinjing 818) [1]): exhibited better drug resistance | tolerance compared with the wild types (summary) (rice (Jinjing 818) [2]): exhibited apparent tolerance | Conversion rate [4, 7]: 54.6%

Reference: patent US20250163449A1, “HERBICIDE-TOLERANT GENES AND METHOD FOR USING SAME” (QINGDAO KINGAGROOT CHEMICAL COMPOUND CO., LTD., priority 2022, published 2025)
